Measured values taken from PMC4794849.

What was measured:
Assay in all cases: filter binding
Details in all cases: Filter binding: 20 mM HEPES-KOH pH 7.5, 1 mM MgCl2, 10 µM TCEP, 5 mM β-mercaptoethanol, 10 µM ZnCl2, 50-500 mM NaCl, 0.2 nM RNA, 25 min, room temperature. …
[1] = tested on: HIV-2 GagΔp6 (HIV-2 isolate ROD)
[2] = tested on: HIV-2 MA (HIV-2 isolate ROD)
[3] = tested on: HIV-2 NC (NCp8) (HIV-2 isolate ROD)

Row | Substance | Kd [1] [µM] | Kd [2] [µM] | Kd [3] [µM]
1 | HIV-2 PBS RNA | 0.314 | 2.07 | 2.04
2 | HIV-2 TARpA RNA | 0.965 | 2.38 | 1.43
3 | HIV-2 Ψ RNA | 0.125 | 1.51 | 0.979
